Read-outs that look alike come from different tables or passages of the source.
Experiments:
[1] = target: nNOS-II (novel constitutive neuronal nitric oxide synthase purified from rat cerebellum) (rat); experiment: enzyme inhibition kinetics on purified nNOS-II, competitive against BK as substrate, oxyhemoglobin assay, EZ-FIT
[2] = target: nNOS-II (novel constitutive neuronal nitric oxide synthase purified from rat cerebellum) (rat); experiment: as above; remark: listed apart in the source
[Lys^1]-BK = test system: T1, [Lys^1]-BK
T1 sequence: KPPGFSPFR

Ile-Ser-BK = test system: T2, Ile-Ser-BK
T2 sequence: ISRPPGFSPFR

[3] = test system: bradykinin (Arg-Pro-Pro-Gly-Phe-Ser-Pro-Phe-Arg)
BK fragment 2-7 = test system: T3, BK fragment 2-7
T3 sequence: PPGFSP

Lys-BK = test system: T4, Lys-BK
T4 sequence: KRPPGFSPFR

BK fragment 1-5 = test system: T5, BK fragment 1-5
T5 sequence: RPPGF

Met-Lys-BK = test system: T6, Met-Lys-BK
T6 sequence: MKRPPGFSPFR

Des-Arg^1-BK = test system: T7, Des-Arg^1-BK
T7 sequence: PPGFSPFA

BK fragment 1-7 = test system: T8, BK fragment 1-7
T8 sequence: RPPGFSP

Cit^1-BK = test system: T9, Cit^1-BK
T9 sequence: XPPGFSPFR

Ki [1] [µM] | Ki [2] [µM] | Substance | Relative activity (%) as substrate, L-arginine = 100% ([Lys^1]-BK) [%] | Relative activity (%) as substrate, L-arginine = 100% (Ile-Ser-BK) [%] | Relative activity (%) as substrate, L-arginine = 100% [3] [%] | apparent KM (NOS activity, oxyhemoglobin assay) [3] | apparent Vmax (NOS activity, oxyhemoglobin assay) [3] | Relative activity (%) as substrate, L-arginine = 100% (BK fragment 2-7) [%] | Relative activity (%) as substrate, L-arginine = 100% (Lys-BK) [%] | Relative activity (%) as substrate, L-arginine = 100% (BK fragment 1-5) [%] | Relative activity (%) as substrate, L-arginine = 100% (Poly-arginine (Mr 5,000)) [%] | Relative activity (%) as substrate, L-arginine = 100% (Met-Lys-BK) [%] | Relative activity (%) as substrate, L-arginine = 100% (Des-Arg^1-BK) [%] | Relative activity (%) as substrate, L-arginine = 100% (BK fragment 1-7) [%] | apparent KM (NOS activity, oxyhemoglobin assay) (Cit^1-BK) | apparent Vmax (NOS activity, oxyhemoglobin assay) (Cit^1-BK)
2500 | 2.5 | [N-adamantaneacetyl-D-Arg^0, Hyp^3, Thi^5,8, D-Phe^7]-BK (peptide) |  |  |  |  |  |  |  |  |  |  |  |  |  | 
 |  | nNOS-II (novel constitutive neuronal nitric oxide synthase purified from rat cerebellum) | 113 | 110 | 125 | Apparent KM values for BK and Cit^1-BK were 8.5 and 6.2 µM, respectively | apparent Vmax values for BK and Cit^1-BK were 1.2 and 1.6 µmol/min/mg protein, respectively | 0 | 116 | 61 | 30 | 0 | 94 | 80 | Apparent KM values for BK and Cit^1-BK were 8.5 and 6.2 µM, respectively | apparent Vmax values for BK and Cit^1-BK were 1.2 and 1.6 µmol/min/mg protein, respectively
